{"source": "patent US20180280549A1", "about": "(METAFORA BIOSYSTEMS, published 2018)", "binders": {"B1": {"name": "HERV-W.RBD.MFC (HERV-W.RBD, receptor-binding domain of the human endogenous retrovirus W envelope glycoprotein, fused to a mouse Fc fragment) (Fc fusion)", "chain": "APPPCRCMTSSSPYQEFLWRMQRPGNIDAPSYRSLSKGTPTFTAHTHMPRNCYHSATLCMHANTHYWTGKMINPSCPGGLGVTVCWTYFTQTGMSDGGGVQGSVDVPRDCGCKPCICTVPEVSSVFIFPPKPKDVLTITLTPKVTCVVVDISKDDPEVQFSWFVDDVEVHTAQTQPREEQFNSTFRSVSELPIMHQDWLNGKEFKCRVNSAAFPAPIEKTISKTKGRPKAPQVYTIPPPKEQMAKDKVSLTCMITDFFPEDITVEWQWNGQPAENYKNTQPIMDTDGSYFVYSKLNVQKSNWEAGNTFTCSVLHEGLHNHHTEKSLSHSPGK", "modifications": "I-125 on tyrosine or histidine residues in the in vivo experiment only (IODO-GEN method); unlabelled in flow cytometry", "notes": "The entry may begin with a signal peptide; also called I-125.HERV-W.RBD.MFC"}}, "key": {"[1]": {"target": "T1, ASCT1 (glutamate and neutral amino acid transporter) (human, UniProt P43007 1-532)", "T1 construct": "Endogenous transporter on human pancreatic tumor cell lines; also called human ASCT1", "T1 sequence": "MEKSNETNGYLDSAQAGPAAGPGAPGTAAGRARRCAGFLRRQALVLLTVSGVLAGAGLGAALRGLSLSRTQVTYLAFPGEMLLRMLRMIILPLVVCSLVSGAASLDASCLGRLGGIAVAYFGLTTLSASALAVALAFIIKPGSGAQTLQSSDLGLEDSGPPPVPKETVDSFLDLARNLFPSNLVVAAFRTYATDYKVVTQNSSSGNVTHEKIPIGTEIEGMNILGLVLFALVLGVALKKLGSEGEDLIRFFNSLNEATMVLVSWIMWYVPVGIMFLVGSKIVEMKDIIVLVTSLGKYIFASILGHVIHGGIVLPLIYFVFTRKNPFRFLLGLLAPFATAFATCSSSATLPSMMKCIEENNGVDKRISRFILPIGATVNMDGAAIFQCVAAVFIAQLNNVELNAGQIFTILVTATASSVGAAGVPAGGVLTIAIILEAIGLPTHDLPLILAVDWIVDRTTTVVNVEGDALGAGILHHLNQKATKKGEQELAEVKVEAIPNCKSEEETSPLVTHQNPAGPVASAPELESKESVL", "experiment": "flow cytometry on pancreatic tumor cell lines (endogenous transporter; ASCT-1/ASCT-2 is the target by Table 1), anti-mouse A647 detection; Capan1 also detected (data not shown)"}, "[2]": {"target": "T2, ASCT2 (glutamine and other neutral amino acid transporter) (human, UniProt Q15758 1-541)", "T2 construct": "Endogenous transporter on human pancreatic tumor cell lines; also called human ASCT2", "T2 sequence": "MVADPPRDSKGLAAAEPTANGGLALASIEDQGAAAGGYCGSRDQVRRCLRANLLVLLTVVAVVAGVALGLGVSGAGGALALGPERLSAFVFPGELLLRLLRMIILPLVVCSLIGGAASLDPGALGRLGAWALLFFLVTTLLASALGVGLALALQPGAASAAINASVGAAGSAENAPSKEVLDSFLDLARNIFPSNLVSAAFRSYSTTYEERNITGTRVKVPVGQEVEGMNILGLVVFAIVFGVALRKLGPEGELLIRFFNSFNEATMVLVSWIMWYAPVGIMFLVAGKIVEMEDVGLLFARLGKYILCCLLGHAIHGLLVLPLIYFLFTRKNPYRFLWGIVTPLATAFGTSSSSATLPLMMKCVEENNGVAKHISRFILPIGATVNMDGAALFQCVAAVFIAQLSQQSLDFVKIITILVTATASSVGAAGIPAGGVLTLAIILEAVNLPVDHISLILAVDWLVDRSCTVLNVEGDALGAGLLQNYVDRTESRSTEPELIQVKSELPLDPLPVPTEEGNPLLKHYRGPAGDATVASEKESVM", "experiment": "flow cytometry on pancreatic tumor cell lines (endogenous transporter; ASCT-1/ASCT-2 is the target by Table 1), anti-mouse A647 detection; Capan1 also detected (data not shown)"}}, "data": [{"binder": "B1", "values": [{"measurement": "binding result", "setting": "[1]", "value": "binds"}, {"measurement": "binding result", "setting": "[2]", "value": "binds"}]}]}
